Test results taken from publication PMC4107924 (IUCrJ, 2014).

Target: T1, MATβV1Δ16, MATβV1 lacking the first 16 amino acids (human, UniProt Q9NZL9 17-334)
T1 construct: MATβV1 (splicing variant 1 of mat2B), human, lacking the first 16 amino acids; Cloned via NcoI and XhoI sites like MATβV1; source: cloned in the HIS-parallel vector
Assay: SEC; MATα and MATβ incubated 1 h at 4°C in 50 mM HEPES pH 7.5, 10 mM MgCl2, 50 mM KCl, 300-500 µM NADP; Superdex 200 10/300 in 200 mM NaCl, 25 mM HEPES pH 7.5, 1 mM MgCl2, 5 mM KCl, 1 mM TCEP; also tested for the effect of NADP
Conditions: both partners purified

binding result: binds
B1: MATα1, catalytic subunit of methionine adenosyltransferase (mat1A gene) (enzyme)
chain: not shown
notes: MATα1, catalytic subunit encoded by mat1A, human; construct provided by SGC Oxford; His tag cleaved with TEV protease; also called MAT(α1)4; source: E. coli BL21(DE3), purified (nickel resin, HiTrap Q ion exchange, Superdex 200 gel filtration)
